In US20260234255A1 (Genmab, published 2026):

B1: IgG1-CD30-T408-FEAR (antibody, V domains shown)
VH: QVQLQQPGAELVRPGASVKLSCKASGYTFTSYWINWVKQRPGQGLEWIGNIYPSDSYSNYNQKFKDKATLTVDKSSSTAYMQLSSPTSEDSAVYYCTLGSYWGQGTLVTVSA
VL: not shown
notes: Monospecific, bivalent parental antibody
B2: bsG1-huCD3-FEALxb12-FERR (bispecific antibody, human IgG1, kappa, lambda)
heavy 1: not shown
light 1: not shown
heavy 2: QVQLVQSGAEVKKPGASVKVSCQASGYRFSNFVIHWVRQAPGQRFEWMGWINPYNGNKEFSAKFQDRVTFTADTSANTAYMELRSLRSADTAVYYCARVGPYSWDDSPQDNYYMDVWGKGTTVIVSSASTKGPSVFPLAPSSKSTSGGTAALGCLVKDYFPEPVTVSWNSGALTSGVHTFPAVLQSSGLYSLSSVVTVPSSSLGTQTYICNVNHKPSNTKVDKRVEPKSCDKTHTCPPCPAPEFERGPSVFLFPPKPKDTLMISRTPEVTCVVVDVSHEDPEVKFNWYVDGVEVHNAKTKPREEQYNSTYRVVSVLTVLHQDWLNGKEYKCKVSNKALPAPIEKTISKAKGQPREPQVYTLPPSREEMTKNQVSLTCLVKGFYPSDIAVEWESNGQPENNYKTTPPVLDSDGSFFLYSRLTVDKSRWQQGNVFSCSVMHEALHNHYTQKSLSLSPG
light 2: EIVLTQSPGTLSLSPGERATFSCRSSHSIRSRRVAWYQHKPGQAPRLVIHGVSNRASGISDRFSGSGSGTDFTLTITRVEPEDFALYYCQVYGASSYTFGQGTKLERKRTVAAPSVFIFPPSDEQLKSGTASVVCLLNNFYPREAKVQWKVDNALQSGNSQESVTEQDSKDSTYSLSSTLTLSKADYEKHKVYACEVTHQGLSSPVTKSFNRGEC
notes: Monovalent CD3 control antibody

Key:
human CD30 [1] = molecular target: T1, human CD30 (human, UniProt P28908 19-595); assay: flow cytometry, HDLM-2 cells
T1 construct: also called huCD30; TNFRSF8
T1 sequence: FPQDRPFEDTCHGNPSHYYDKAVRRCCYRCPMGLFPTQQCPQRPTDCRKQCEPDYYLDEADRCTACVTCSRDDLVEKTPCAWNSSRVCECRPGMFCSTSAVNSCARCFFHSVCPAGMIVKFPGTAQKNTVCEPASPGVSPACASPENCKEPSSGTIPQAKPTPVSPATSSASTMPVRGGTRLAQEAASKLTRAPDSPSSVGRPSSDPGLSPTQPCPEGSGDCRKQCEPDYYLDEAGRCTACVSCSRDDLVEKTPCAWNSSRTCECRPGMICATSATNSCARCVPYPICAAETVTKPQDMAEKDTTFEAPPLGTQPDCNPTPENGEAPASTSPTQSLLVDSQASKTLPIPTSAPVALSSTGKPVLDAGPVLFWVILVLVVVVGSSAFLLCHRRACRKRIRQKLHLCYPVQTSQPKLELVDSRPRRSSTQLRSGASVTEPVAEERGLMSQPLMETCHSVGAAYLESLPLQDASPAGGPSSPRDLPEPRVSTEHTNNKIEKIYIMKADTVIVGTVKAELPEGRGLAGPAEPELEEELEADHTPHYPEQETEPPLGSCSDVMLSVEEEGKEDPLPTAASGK
Summary of the method: (§1)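 CD3×CD30 bispecific antibodies, 3-fold serial dilutions from 0.0046 to 10 μg/mL, incubated with 3×10⁴ SU-DHL-1 (ALCL) or HDLM-2 (HL) cells for 30 min at 4 °C, then secondary antibody 30 min at 4 °C. Live cells gated by FSC/SSC and TO-PRO-3 exclusion; binding curves fitted by four-parameter sigmoidal regression.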

human CD30 [2] = molecular target: T1, human CD30; assay: flow cytometry, SU-DHL-1 cells
Summary of the method: as §1

human CD30 [3] = molecular target: T1, human CD30; assay: flow cytometry, Expi293F cells transfected with human CD30
Experimental: Cells (3×10⁴ cells/well) were incubated in polystyrene 96-well round-bottom plates (Greiner bio-one, cat. no. 650180) with serial dilutions of antibodies (ranging from 0.005 to 10 μg/mL in 3-fold dilution steps) in 100 μL staining buffer at 4° C. for 30 min. Experiments were performed in technical duplicate. After washing twice in staining buffer, cells were incubated in 50 μL secondary antibody at 4° C. for 30 min. As a secondary antibody, R-PE-conjugated goat-anti-human IgG (Jackson ImmunoResearch, UK; cat. no. 109⁻¹¹⁶-098) diluted 1:400 in staining buffer was used. Cells were washed twice in staining buffer, resuspended in 30 μL staining buffer containing 0.4% EDTA and analyzed on an iQue Screener (Intellicyt Corporation, USA). Binding curves were analyzed using non-linear regression (sigmoidal dose-response with variable slope) using GraphPad Prism V9.0.0 software (GraphPad Software, San Diego, CA, USA).

[4] = molecular target: T2, rhesus monkey (Macaca mulatta) CD30 (rhesus monkey, UniProt P28908 19-595 (human entry)); assay: flow cytometry, Expi293F cells transfected with rhesus monkey CD30
T2 construct: also called mmCD30
T2 chain: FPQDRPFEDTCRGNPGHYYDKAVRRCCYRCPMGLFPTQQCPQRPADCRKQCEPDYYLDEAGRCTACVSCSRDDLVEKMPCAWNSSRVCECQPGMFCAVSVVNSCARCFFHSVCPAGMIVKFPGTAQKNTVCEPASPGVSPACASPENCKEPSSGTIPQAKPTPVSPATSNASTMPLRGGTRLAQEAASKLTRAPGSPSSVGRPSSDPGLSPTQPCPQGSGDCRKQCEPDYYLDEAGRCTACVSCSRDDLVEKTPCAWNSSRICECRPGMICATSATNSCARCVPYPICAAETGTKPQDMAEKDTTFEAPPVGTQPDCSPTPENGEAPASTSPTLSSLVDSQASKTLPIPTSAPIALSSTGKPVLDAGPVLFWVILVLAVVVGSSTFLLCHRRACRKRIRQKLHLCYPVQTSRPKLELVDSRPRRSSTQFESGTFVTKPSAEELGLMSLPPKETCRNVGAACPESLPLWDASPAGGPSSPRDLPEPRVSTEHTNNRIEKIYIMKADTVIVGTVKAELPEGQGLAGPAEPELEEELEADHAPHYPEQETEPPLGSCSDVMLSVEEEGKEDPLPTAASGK

[5] = molecular target: T3, cynomolgus monkey (Macaca fascicularis) CD30 (cynomolgus monkey, UniProt P28908 19-595 (human entry)); assay: flow cytometry, HEK293 cells transfected with mfCD30
T3 construct: also called mfCD30
T3 chain: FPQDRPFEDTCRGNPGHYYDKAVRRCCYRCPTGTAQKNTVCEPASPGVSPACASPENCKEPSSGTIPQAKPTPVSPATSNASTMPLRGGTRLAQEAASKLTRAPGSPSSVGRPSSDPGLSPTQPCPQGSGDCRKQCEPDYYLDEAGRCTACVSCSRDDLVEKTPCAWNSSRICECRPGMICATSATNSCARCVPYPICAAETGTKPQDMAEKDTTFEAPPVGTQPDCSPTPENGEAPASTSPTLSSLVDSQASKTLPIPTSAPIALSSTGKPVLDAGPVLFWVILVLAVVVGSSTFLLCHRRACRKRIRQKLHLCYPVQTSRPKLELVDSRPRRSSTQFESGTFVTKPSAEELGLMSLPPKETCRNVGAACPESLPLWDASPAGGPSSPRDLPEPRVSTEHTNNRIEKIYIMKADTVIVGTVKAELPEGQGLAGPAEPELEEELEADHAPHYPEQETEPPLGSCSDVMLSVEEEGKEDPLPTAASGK
Experimental: Cells (3×10⁴ cells/well) were incubated in polystyrene 96-well round-bottom plates (Thermo Scientific, cat. no. 163320) with serial dilutions of antibodies (ranging from 0.0002 to 50 μg/mL in 4-fold dilution steps) in 50 μL staining buffer at 4° C. for 30 min. Experiments were performed in technical duplicate. After washing twice in staining buffer, cells were incubated in 50 μL secondary antibody at 4° C. for 30 min. As a secondary antibody, R-PE-conjugated goat-anti-human IgG (Jackson ImmunoResearch, UK; cat. no. 109⁻¹¹⁶-098) diluted 1:200 in staining buffer was used. Cells were washed twice in staining buffer, resuspended in 30 μL staining buffer containing 0.4% EDTA and the ToPro-3 viability marker (Invitrogen, cat. no. T3605) diluted 1:10,000. Cells were analyzed on an iQue Screener (Intellicyt Corporation, USA). Binding curves were analyzed using non-linear regression (sigmoidal dose-response with variable slope) using GraphPad Prism V9.0.0 software (GraphPad Software, San Diego, CA, USA).

Row | Binder | EC50 (read off the curve) (human CD30 [1]) [µg/mL] | EC50 (read off the curve) (human CD30 [2]) [µg/mL] | EC50 (read off the curve) (human CD30 [3]) [µg/mL] | EC50 (read off the curve) [4] [µg/mL] | binding result [5]
1 | B1 | ~1 | ~0.6 | ~0.2 | ~0.4 | –
2 | B2 | – | – | – | – | no binding (tested: 0.0002 to 50 µg/mL)
